B1: LIM and senescent cell antigen-like-containing domain protein 2, residues 13 to 71; numbered along this chain, Q7Z4I7 (parent)
chain: AVCQRCQARFSPAERIVNSNGELYHEHCFVCAQCFRPFPEGLFYEFEGRKYCEHDFQML

± gives the uncertainty stated by the source.

The data set covers variants of B1. Put plainly: abundance fitness (aPCA) (normalised: wild type 0, dead -1); higher = more abundant; growth selection in yeast, the domain comes from the species named. The following applies: Homo sapiens.
With AVCQRCQARFSPAERIVNSNGELYHEHCFVCAQCFDPFPEGLFYEFEGRKYCEHDFQML [R36D], the abundance fitness is -0.095 ± 0.14.

For AVCQRCQARFSPAERIVNSNGELYHEHCFVCAQCFQPFPEGLFYEFEGRKYCEHDFQML [R36Q], the abundance fitness is 0.063 ± 0.086.

Turning to AVCQRCQARFSPAERIVNSNGEQYHEHCFVCAQCFRPFPEGLFYEFEGRKYCEHDFQML [L23Q], the abundance fitness amounted to 0.123 ± 0.051.

In the case of AVCQRCQARFSPAERIVNSNGELYHTHCFVCAQCFRPFPEGLFYEFEGRKYCEHDFQML [E26T], the abundance fitness was -0.164 ± 0.1.

Consider AVCQRCQARFSPAERIVNSNGELYHRHCFVCAQCFRPFPEGLFYEFEGRKYCEHDFQML [E26R], for which the abundance fitness was -0.237 ± 0.073.

For AVCQRCQARFSPAERIVNSNGELYHEHCFVCAQCFRPFPEGLFGEFEGRKYCEHDFQML [Y44G], the abundance fitness was -0.324 ± 0.09.

AVCQRCQARFSPAERIVNSNGELYHEHCFVCAQCFRPFPEGLFLEFEGRKYCEHDFQML [Y44L]: the abundance fitness was -0.247 ± 0.055.

Take AVCQRCQARFSPAERIVNSNGELYHEHCFVCAQCFRPFPEGLFMEFEGRKYCEHDFQML [Y44M]: the abundance fitness was -0.114 ± 0.088.

For AVCQRCQARFSPAERIVNSNGELYHEHCFVCAQCFRPFPEGLFYEFEGRKYCEHDFWML [Q57W], the abundance fitness was -0.28 ± 0.12.

Consider AVCQRCQARFSPAERIVNSNGELYHEHCFVCAQCFRPFPEGLFYEFEGRKYCEHDFLML [Q57L], for which the abundance fitness is -0.331 ± 0.061.

Consider AVCQRCQARFSPAERIVNSNGELYHEHCFVCAQCFRPFPEGLFYEFEGRKYCEHDFKML [Q57K], for which the abundance fitness is 0.006 ± 0.092.

For the variant AVCQRCQARFSPAERIVNSNGELQHEHCFVCAQCFRPFPEGLFYEFEGRKYCEHDFQML [Y24Q], the abundance fitness is -0.282 ± 0.068.

Take AVCQRCQARFWPAERIVNSNGELYHEHCFVCAQCFRPFPEGLFYEFEGRKYCEHDFQML [S11W]: the abundance fitness is -0.131 ± 0.08.

As to AVCQRCQARFMPAERIVNSNGELYHEHCFVCAQCFRPFPEGLFYEFEGRKYCEHDFQML [S11M], the abundance fitness was 0.004 ± 0.067.

In the case of GVCQRCQARFSPAERIVNSNGELYHEHCFVCAQCFRPFPEGLFYEFEGRKYCEHDFQML [A1G], the abundance fitness was -0.135 ± 0.081.

As to TVCQRCQARFSPAERIVNSNGELYHEHCFVCAQCFRPFPEGLFYEFEGRKYCEHDFQML [A1T], the abundance fitness was 0.176 ± 0.16.

Regarding AVCVRCQARFSPAERIVNSNGELYHEHCFVCAQCFRPFPEGLFYEFEGRKYCEHDFQML [Q4V], the abundance fitness is -0.228 ± 0.068.

Turning to AVCGRCQARFSPAERIVNSNGELYHEHCFVCAQCFRPFPEGLFYEFEGRKYCEHDFQML [Q4G], the abundance fitness was -0.127 ± 0.071.

Take AVCCRCQARFSPAERIVNSNGELYHEHCFVCAQCFRPFPEGLFYEFEGRKYCEHDFQML [Q4C]: the abundance fitness came to 0.065 ± 0.11.

On to AVCQRCQARFSPAERIVNSSGELYHEHCFVCAQCFRPFPEGLFYEFEGRKYCEHDFQML [N20S], for which the abundance fitness was 0.087 ± 0.067.

Take AVCQRCQARFSPAERIVNSFGELYHEHCFVCAQCFRPFPEGLFYEFEGRKYCEHDFQML [N20F]: the abundance fitness is -0.359 ± 0.17.

For AVCQRCQARFSPAERIVNSYGELYHEHCFVCAQCFRPFPEGLFYEFEGRKYCEHDFQML [N20Y], the abundance fitness was -0.376 ± 0.15.

As to AVLQRCQARFSPAERIVNSNGELYHEHCFVCAQCFRPFPEGLFYEFEGRKYCEHDFQML [C3L], the abundance fitness is -0.705 ± 0.088.

Consider AVMQRCQARFSPAERIVNSNGELYHEHCFVCAQCFRPFPEGLFYEFEGRKYCEHDFQML [C3M], for which the abundance fitness was -0.843 ± 0.14.

Regarding AVCQRCQARFSPAERIVNSNGELYHEHCFVCAQCFRPFPEGLFYEFAGRKYCEHDFQML [E47A], the abundance fitness was -0.129 ± 0.06.

In the case of AVCQRCQARFSPAERIVNSNGELYHEHCFVCVQCFRPFPEGLFYEFEGRKYCEHDFQML [A32V], the abundance fitness is -0.001 ± 0.042.

On to AVCQRCQARFSPAERIVNSNGELYHEHCFVCLQCFRPFPEGLFYEFEGRKYCEHDFQML [A32L], for which the abundance fitness is -0.322 ± 0.045.

As for AVCQRCQARFSPAERIVNSNGELYHEHCFVCDQCFRPFPEGLFYEFEGRKYCEHDFQML [A32D], the abundance fitness is -0.026 ± 0.068.

As for AVCQRCQARFSPAERIVNSNGELYHEHCFVCAQPFRPFPEGLFYEFEGRKYCEHDFQML [C34P], the abundance fitness is -0.508 ± 0.12.

AVCQRCQARFSPAERIVNSNGELYHEHCFVCAQQFRPFPEGLFYEFEGRKYCEHDFQML [C34Q]: the abundance fitness was -0.622 ± 0.13.

In the case of AVCQRCQARFSPAERIVNSNGELYHEHCFVCAQCFRPFPEGLFYEFEGRKLCEHDFQML [Y51L], the abundance fitness stood at 0.186 ± 0.06.

Take AVCQRCQARFSPAERIVNSNGELYHEHCFVCAQCFRPFPEGLFYEFEGRKICEHDFQML [Y51I]: the abundance fitness was -0.283 ± 0.098.

On to AVCQRCQARFSPAERIVNSNGELYHEHCFVCAQCFRPFPEGLFYEFEGRKWCEHDFQML [Y51W], for which the abundance fitness was -0.426 ± 0.14.

Take AVCQRCQARFSPAERIVNSNGELYHEHCFVCAQCFRPFPEGLFYEFEGRKDCEHDFQML [Y51D]: the abundance fitness was -0.452 ± 0.14.

For AVCQRCQARFSPAERIVNSNGELYHEHCFVCAQCFRPCPEGLFYEFEGRKYCEHDFQML [F38C], the abundance fitness is -0.18 ± 0.1.

Turning to ASCQRCQARFSPAERIVNSNGELYHEHCFVCAQCFRPFPEGLFYEFEGRKYCEHDFQML [V2S], the abundance fitness is -0.445 ± 0.11.

As for AVCQRCQARFSPAERIVNSNGELYHEHCFVCAKCFRPFPEGLFYEFEGRKYCEHDFQML [Q33K], the abundance fitness was -0.092 ± 0.13.

For the variant AVCQRCQACFSPAERIVNSNGELYHEHCFVCAQCFRPFPEGLFYEFEGRKYCEHDFQML [R9C], the abundance fitness was -0.164 ± 0.11.

Turning to AVCQRCQAAFSPAERIVNSNGELYHEHCFVCAQCFRPFPEGLFYEFEGRKYCEHDFQML [R9A], the abundance fitness is -0.104 ± 0.076.

Take AVCQRCQAPFSPAERIVNSNGELYHEHCFVCAQCFRPFPEGLFYEFEGRKYCEHDFQML [R9P]: the abundance fitness worked out at 0.051 ± 0.068.

For AVCQRCQAQFSPAERIVNSNGELYHEHCFVCAQCFRPFPEGLFYEFEGRKYCEHDFQML [R9Q], the abundance fitness was 0.039 ± 0.089.

For AVCQRCQARFSPAERIVNSNGELYHEHCFVCAQCFRPFPEGLFYEFENRKYCEHDFQML [G48N], the abundance fitness came to 0.114 ± 0.098.

Consider AVCQRCQARFSPAERIVNSNGELYHEHCFVCAQCFRPFPEGLFYEFEQRKYCEHDFQML [G48Q], for which the abundance fitness was -0.238 ± 0.062.

Consider AVCQRCQARFSPAERIVNSNGELYHEHCFVCAQCFRPFPEGLFYEFECRKYCEHDFQML [G48C], for which the abundance fitness was -0.224 ± 0.079.

For AVCQRCQARFSPAERIVNSNGELYHEHCFVCAQCFRPFPEGLFYEFEPRKYCEHDFQML [G48P], the abundance fitness was -0.686 ± 0.084.
